# How the values were obtained:
# [1] = biological target: T1, ToxN (ToxNEc) (Escherichia coli strain 680, UniProt PDB:7D8O_1 1-187); assay: ITC; no appreciable heat change; ITC: 50 mM KH2PO4 pH 7, 100 mM KCl, 15°C; 2-5 uM RNA in cell, 35-50 uM ToxN in syringe; settings: protein: recombinant; tags: N-terminal His6 (pCold II); pseudoknot
# [2] = biological target: T1, ToxN (ToxNEc); assay: ITC; one-site fit; ITC: 50 mM KH2PO4 pH 7, 100 mM KCl, 15°C; 2-5 uM RNA in cell, 35-50 uM ToxN in syringe; settings: protein: recombinant, tags: N-terminal His6 (pCold II)
binder,measurement,setting,value
GGAGGUGAUUUGCUACCUUUAAGUGCA (structured_RNA) [27mer (core pseudoknot)],binding result,[1],no binding
GGAGGUGAUUUGCUACCUUUAAGUGCAGCUAGAA (structured_RNA) [Δ5'-ToxI],Kd,[2]; pseudoknot with 3' single-stranded overhang,0.0473 ± 0.0074 µM
GGAUUCAGGUGAUUUGCUACCUUUAAGUGCA (structured_RNA) [Δ3'-ToxI],Kd,[2]; pseudoknot with 5' single-stranded overhang,0.243 ± 0.055 µM
